Patent US20220229068A1, “DETECTION OF PROTEIN TO PROTEIN INTERACTIONS” (THE GOVERNING COUNCIL OF THE UNIVERSITY OF TORONTO, priority 2019, published 2022)

Target: T1, FRB/FKBP1A interaction (Homo sapiens, UniProt P42345+P62942)
T1 construct: expressed in transfected cells; host or cells: HEK 293 (also HeLa, PC9)
Type: cell-based
Details: FRB-IN/IC-FKBP1A in HEK 293, Western blot
Method: Cell culture and treatment. […] These cells were grown in DMEM supplemented with 10% fetal calf serum (Life Technologies). […] For ELISA assay, cells were seeded in 96 well (Sarstedt AG & Co) or 384 well plates (Greiner Bio-One) with 15,000 (96 well) or 5,000 (384 well) cells per well. Cells were transfected with various plasmids with polyethylenimine (PEI) Max (Polysciences) [40]. Expression in HEK 293 Flp-In T-Rex cells was induced by treating the cells with tetracycline (1 μg/ml) for 6-16 hrs. […] Stable cell lines were created according to the manual of Flp-In T-REx (Invitrogen). Briefly, plasmid containing both bait and prey DNA and pOG44 plasmid (1:10 ratio) were cotransfected into HEK 293 Flp-In T-Rex cells.
Western blot analysis and immunoprecipitation. Cells were lysed in buffer H (Triton X 100 1%, β-glycerophosphate pH7.3 50 mM, EGTA 1.5 mM, EDTA 1 mM, orthovanadate 0.1 mM, DTT 1 mM supplemented with protease inhibitors (Roche)). After centrifugation at 21,000×g for 10 min, the supernatants were mixed with Laemmli sample buffer, boiled at 95° C. for 3-5 min and subjected to Western blot analysis. For immunoprecipitations, supernatants (0.3 ml) were incubated with antibodies at 4° C. with rotation for one hour, followed by another hour of incubation with protein G sepharose beads (GE Healthcare). […]

T1 sequence (P42345 with tags, fused parts or gaps): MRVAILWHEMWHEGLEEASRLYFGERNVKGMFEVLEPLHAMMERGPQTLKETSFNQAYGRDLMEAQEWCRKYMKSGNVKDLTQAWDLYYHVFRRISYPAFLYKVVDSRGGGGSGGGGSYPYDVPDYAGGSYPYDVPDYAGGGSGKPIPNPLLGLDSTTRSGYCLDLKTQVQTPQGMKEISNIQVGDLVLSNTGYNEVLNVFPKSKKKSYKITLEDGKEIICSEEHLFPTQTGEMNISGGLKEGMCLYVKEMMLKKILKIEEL
T1 sequence (P62942 with tags, fused parts or gaps): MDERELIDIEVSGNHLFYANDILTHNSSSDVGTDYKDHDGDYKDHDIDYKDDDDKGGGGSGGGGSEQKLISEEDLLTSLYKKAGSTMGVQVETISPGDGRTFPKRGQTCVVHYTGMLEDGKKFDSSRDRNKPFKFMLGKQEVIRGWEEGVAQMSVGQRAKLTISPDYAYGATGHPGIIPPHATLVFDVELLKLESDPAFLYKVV

Molecule	self-association / splicing in the absence of rapamycin
WT form of GP41-1: natural GP41-1 split intein, split at C37 (SEQ ID NO: 1, 2) (protein, Synthetic GP41-1 IN (WT); Synthetic GP41-1 IC (WT)) chain 1: CLDLKTQVQTPQGMKEISNIQVGDLVLSNTGYNEVLNVFPKSKKKSYKITLEDGKEIICSEEHLFPTQTGEMNISGGLKEGMCLYVKE chain 2: MMLKKILKIEELDERELIDIEVSGNHLFYANDILTHN	relatively high level of FRB/FKBP1A splicing even in the absence of rapamycin treatment
C25 split intein: IC aa13-aa37 of WT IC; IN aa1-aa88 of WT IN + aa1-aa12 of WT IC (SEQ ID NO: 3, 4) (protein, Synthetic GP41-1 IN (C25); Synthetic GP41-1 IC (C25)) chain 1: CLDLKTQVQTPQGMKEISNIQVGDLVLSNTGYNEVLNVFPKSKKKSYKITLEDGKEIICSEEHLFPTQTGEMNISGGLKEGMCLYVKEMMLKKILKIEEL chain 2: DERELIDIEVSGNHLFYANDILTHN	minimal self-association
